This passage reports Hits results from patent US20050106141A1 (PROCTER AND GAMBLE, published 2005).

The assay concerns the target T1, LexA BD-HRt (mouse, UniProt P0A7C2 1-202; Q61645 490-1182).
T1 construct: domain: Lex A DNA BD;range 490-1182; also called BD-HRt(mouse); Lex A DNA BD-HRt
T1 sequence (looked up): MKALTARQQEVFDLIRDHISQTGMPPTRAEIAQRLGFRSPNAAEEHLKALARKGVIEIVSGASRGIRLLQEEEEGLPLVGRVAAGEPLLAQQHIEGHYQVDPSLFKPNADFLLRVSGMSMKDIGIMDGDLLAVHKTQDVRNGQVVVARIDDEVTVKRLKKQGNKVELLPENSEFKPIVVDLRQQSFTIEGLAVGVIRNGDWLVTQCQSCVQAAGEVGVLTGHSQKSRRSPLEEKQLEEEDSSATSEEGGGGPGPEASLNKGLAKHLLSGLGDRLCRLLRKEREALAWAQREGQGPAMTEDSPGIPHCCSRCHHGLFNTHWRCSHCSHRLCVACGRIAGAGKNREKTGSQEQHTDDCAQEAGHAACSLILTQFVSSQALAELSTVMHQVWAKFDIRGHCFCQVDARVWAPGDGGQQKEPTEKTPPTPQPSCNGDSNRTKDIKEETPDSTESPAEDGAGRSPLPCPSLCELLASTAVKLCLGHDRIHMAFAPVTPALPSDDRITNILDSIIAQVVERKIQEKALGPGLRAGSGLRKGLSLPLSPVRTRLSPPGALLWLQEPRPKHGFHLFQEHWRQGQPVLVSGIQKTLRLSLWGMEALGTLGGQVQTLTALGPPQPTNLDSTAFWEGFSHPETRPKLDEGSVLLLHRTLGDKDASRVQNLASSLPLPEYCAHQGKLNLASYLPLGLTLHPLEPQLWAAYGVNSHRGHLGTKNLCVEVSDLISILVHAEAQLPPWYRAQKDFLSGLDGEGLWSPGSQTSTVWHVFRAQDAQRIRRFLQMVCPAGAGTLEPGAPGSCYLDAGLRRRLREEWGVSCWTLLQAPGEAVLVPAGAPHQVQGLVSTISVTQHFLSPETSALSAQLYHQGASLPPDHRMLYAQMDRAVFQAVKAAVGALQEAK
The assay can be described thus: yeast two-hybrid library screen; number of positive clones with this identity.

Description: Clontech Human Keratinocyte GAL4 cDNA library (complexity 2.5×10⁶) in pACT2 vector was used used to screen for HRt interacting proteins. A Leu⁻, Trp⁻ yeast strain with HIS3 and LACZ reporters for yeasts two hybrid interaction (strain L41) was first transformed with LexA BD-HRt palsmid) for Trp⁺ phenotype. The resulting L41/LexA BD-HR transformant was screened to ensure expression of LexA BD-HRt protein and also for lack of auto activation of the reporter genes HIS3 and LACZ. This strain was transformed with Keratinocyte AD-cDNA library and plated on Trp⁻Leu⁻His⁻ plate to select for clones with positive interaction. Colonies that appeared on selsctive plates were subsequently tested for LACZ expression on X-GAL plates. […] AD-plasmid was rescued from the 90 clones and retested for HRt bait dependance. […] The positive clones are expected to contain an AD-IP (interacting partner) that interacts with BD-HRt.

B1: Homo Sapiens Annexin A1 (Lipocortin 1 or P35) (other, UniProt P04083 1-346, looked up, not shown: large carriers)
chain: MAMVSEFLKQAWFIENEEQEYVQTVKSSKGGPGSAVSPYPTFNPSSDVAALHKAIMVKGVDEATIIDILTKRNNAQRQQIKAAYLQETGKPLDETLKKALTGHLEEVVLALLKTPAQFDADELRAAMKGLGTDEDTLIEILASRTNKEIRDINRVYREELKRDLAKDITSDTSGDFRNALLSLAKGDRSEDFGVNEDLADSDARALYEAGERRKGTDVNVFNTILTTRSYPQLRRVFQKYTKYSKHDMNKVLDLELKGDIEKCLTAIVKCATSKPAFFAEKLHQAMKGVGTRHKALIRIMVSRSEIDMNDIKAFYQKMYGISLCQAILDETKGDYEKILVALCGGN
notes: Prey clone; extent of the clone unknown; also called AD-IP; BC001275
B1: the Hits was 1.

B2: Homo Sapiens Protein Inhibitor of Activated STAT-3 (PIAS3) (other, UniProt Q9Y6X2 1-628, looked up, not shown: large carriers)
chain: MAELGELKHMVMSFRVSELQVLLGFAGRNKSGRKHELLAKALHLLKSSCAPSVQMKIKELYRRRFPRKTLGPSDLSLLSLPPGTSPVGSPGPLAPIPPTLLAPGTLLGPKREVDMHPPLPQPVHPDVTMKPLPFYEVYGELIRPTTLASTSSQRFEEAHFTFALTPQQVQQILTSREVLPGAKCDYTIQVQLRFCLCETSCPQEDYFPPNLFVKVNGKLCPLPGYLPPTKNGAEPKRPSRPINITPLARLSATVPNTIVVNWSSEFGRNYSLSVYLVRQLTAGTLLQKLRAKGIRNPDHSRALIKEKLTADPDSEVATTSLRVSLMCPLGKMRLTVPCRALTCAHLQSFDAALYLQMNEKKPTWTCPVCDKKAPYESLIIDGLFMEILSSCSDCDEIQFMEDGSWCPMKPKKEASEVCPPPGYGLDGLQYSPVQGGDPSENKKKVEVIDLTIESSSDEEDLPPTKKHCSVTSAAIPALPGSKGVLTSGHQPSSVLRSPAMGTLGGDFLSSLPLHEYPPAFPLGADIQGLDLFSFLQTESQHYGPSVITSLDEQDALGHFFQYRGTPSHFLGPLAPTLGSSHCSATPAPPPGRVSSIVAPGGALREGHGGPLPSGPSLTGCRSDIISLD
notes: Prey clone; extent of the clone unknown; also called AD-IP; BC030556
Turning to B2, the Hits came out at 1.

B3: Homo Sapiens Thyroid Hormone Receptor Alpha (receptor, UniProt P10827-2 1-410, looked up, not shown: large carriers)
chain: MEQKPSKVECGSDPEENSARSPDGKRKRKNGQCSLKTSMSGYIPSYLDKDEQCVVCGDKATGYHYRCITCEGCKGFFRRTIQKNLHPTYSCKYDSCCVIDKITRNQCQLCRFKKCIAVGMAMDLVLDDSKRVAKRKLIEQNRERRRKEEMIRSLQQRPEPTPEEWDLIHIATEAHRSTNAQGSHWKQRRKFLPDDIGQSPIVSMPDGDKVDLEAFSEFTKIITPAITRVVDFAKKLPMFSELPCEDQIILLKGCCMEIMSLRAAVRYDPESDTLTLSGEMAVKREQLKNGGLGVVSDAIFELGKSLSAFNLDDTEVALLQAVLLMSTDRSGLLCVDKIEKSQEAYLLAFEHYVNHRKHNIPHFWPKLLMKVTDLRMIGACHASRFLHMKVECPTELFPPLFLEVFEDQEV
notes: Prey clone; extent of the clone unknown; also called AD-IP; BC000261
As for B3, the Hits amounted to 7.

B4: Homo Sapiens Insulin-like Growth Factor Binding Domain Protein 6 (other, UniProt P24592 28-240, looked up, not shown: large carriers)
chain: RCPGCGQGVQAGCPGGCVEEEDGGSPAEGCAEAEGCLRREGQECGVYTPNCAPGLQCHPPKDDEAPLRALLLGRGRCLPARAPAVAEENPKESKPQAGTARPQDVNRRDQQRNPGTSTTPSQPNSAGVQDTEMGPCRRHLDSVLQQLQTEVYRGAQTLYVPNCDHRGFYRKRQCRSSQGQRRGPCWCVDRMGKSLPGSPDGNGSSSCPTGSSG
notes: Prey clone; extent of the clone unknown; also called AD-IP
For the molecule B4, the Hits worked out at 1.

B5: Homo Sapiens Inner Membrane Protein, Mitochondrial (Mitofilin) (other, UniProt Q16891 1-758, looked up, not shown: large carriers)
chain: MLRACQLSGVTAAAQSCLCGKFVLRPLRPCRRYSTSGSSGLTTGKIAGAGLLFVGGGIGGTILYAKWDSHFRESVEKTIPYSDKLFEMVLGPAAYNVPLPKKSIQSGPLKISSVSEVMKESKQPASQLQKQKGDTPASATAPTEAAQIISAAGDTLSVPAPAVQPEESLKTDHPEIGEGKPTPALSEEASSSSIRERPPEEVAARLAQQEKQEQVKIESLAKSLEDALRQTASVTLQAIAAQNAAVQAVNAHSNILKAAMDNSEIAGEKKSAQWRTVEGALKERRKAVDEAADALLKAKEELEKMKSVIENAKKKEVAGAKPHITAAEGKLHNMIVDLDNVVKKVQAAQSEAKVVSQYHELVVQARDDFKRELDSITPEVLPGWKGMSVSDLADKLSTDDLNSLIAHAHRRIDQLNRELAEQKATEKQHITLALEKQKLEEKRAFDSAVAKALEHHRSEIQAEQDRKIEEVRDAMENEMRTQLRRQAAAHTDHLRDVLRVQEQELKSEFEQNLSEKLSEQELQFRRLSQEQVDNFTLDINTAYARLRGIEQAVQSHAVAEEEARKAHQLWLSVEALKYSMKTSSAETPTIPLGSAVEAIKANCSDNEFTQALTAAIPPESLTRGVYSEETLRARFYAVQKLARRVAMIDETRNSLYQYFLSYLQSLLLFPPQQLKPPPELCPEDINTFKLLSYASYCIEHGDLELAAKFVNQLKGESRRVAQDWLKEARMTLETKQIVEILTAYASAVGIGTTQVQPE
notes: Prey clone; extent of the clone unknown; also called AD-IP; BC002412
Molecule B5 displayed a Hits of 3.

B6: Homo Sapiens Retinoic Acid Receptor Gamma-1 (receptor, UniProt P13631 1-454, looked up, not shown: large carriers)
chain: MATNKERLFAAGALGPGSGYPGAGFPFAFPGALRGSPPFEMLSPSFRGLGQPDLPKEMASLSVETQSTSSEEMVPSSPSPPPPPRVYKPCFVCNDKSSGYHYGVSSCEGCKGFFRRSIQKNMVYTCHRDKNCIINKVTRNRCQYCRLQKCFEVGMSKEAVRNDRNKKKKEVKEEGSPDSYELSPQLEELITKVSKAHQETFPSLCQLGKYTTNSSADHRVQLDLGLWDKFSELATKCIIKIVEFAKRLPGFTGLSIADQITLLKAACLDILMLRICTRYTPEQDTMTFSDGLTLNRTQMHNAGFGPLTDLVFAFAGQLLPLEMDDTETGLLSAICLICGDRMDLEEPEKVDKLQEPLLEALRLYARRRRPSQPYMFPRMLMKITDLRGISTKGAERAITLKMEIPGPMPPLIREMLENPEMFEDDSSQPGPHPNASSEDEVPGGQGKGGLKSPA
notes: Prey clone; extent of the clone unknown; also called Human Retinoic Acid Receptor Gamma 1; AD-IP
Take B6: the Hits worked out at 1.

B7: Homo Sapiens Keratin 5 (other, UniProt P13647 1-590, looked up, not shown: large carriers)
chain: MSRQSSVSFRSGGSRSFSTASAITPSVSRTSFTSVSRSGGGGGGGFGRVSLAGACGVGGYGSRSLYNLGGSKRISISTSGGSFRNRFGAGAGGGYGFGGGAGSGFGFGGGAGGGFGLGGGAGFGGGFGGPGFPVCPPGGIQEVTVNQSLLTPLNLQIDPSIQRVRTEEREQIKTLNNKFASFIDKVRFLEQQNKVLDTKWTLLQEQGTKTVRQNLEPLFEQYINNLRRQLDSIVGERGRLDSELRNMQDLVEDFKNKYEDEINKRTTAENEFVMLKKDVDAAYMNKVELEAKVDALMDEINFMKMFFDAELSQMQTHVSDTSVVLSMDNNRNLDLDSIIAEVKAQYEEIANRSRTEAESWYQTKYEELQQTAGRHGDDLRNTKHEISEMNRMIQRLRAEIDNVKKQCANLQNAIADAEQRGELALKDARNKLAELEEALQKAKQDMARLLREYQELMNTKLALDVEIATYRKLLEGEECRLSGEGVGPVNISVVTSSVSSGYGSGSGYGGGLGGGLGGGLGGGLAGGSSGSYYSSSSGGVGLGGGLSVGGSGFSASSGRGLGVGFGSGGGSSSSVKFVSTTSSSRKSFKS
notes: Prey clone of the human keratinocyte AD-cDNA library; whole protein named, extent of the clone unknown; also called AD-IP; BC024292
B7: the Hits came to 1.

B8: Homo Sapiens Nucleoporin 160 Kda (other, UniProt Q12769 1-1436, looked up, not shown: large carriers)
chain: MLHLSAAPPAPPPEVTATARPCLCSVGRRGDGGKMAAAGALERSFVELSGAERERPRHFREFTVCSIGTANAVAGAVKYSESAGGFYYVESGKLFSVTRNRFIHWKTSGDTLELMEESLDINLLNNAIRLKFQNCSVLPGGVYVSETQNRVIILMLTNQTVHRLLLPHPSRMYRSELVVDSQMQSIFTDIGKVDFTDPCNYQLIPAVPGISPNSTASTAWLSSDGEALFALPCASGGIFVLKLPPYDIPGMVSVVELKQSSVMQRLLTGWMPTAIRGDQSPSDRPLSLAVHCVEHDAFIFALCQDHKLRMWSYKEQMCLMVADMLEYVPVKKDLRLTAGTGHKLRLAYSPTMGLYLGIYMHAPKRGQFCIFQLVSTESNRYSLDHISSLFTSQETLIDFALTSTDIWALWHDAENQTVVKYINFEHNVAGQWNPVFMQPLPEEEIVIRDDQDPREMYLQSLFTPGQFTNEALCKALQIFCRGTERNLDLSWSELKKEVTLAVENELQGSVTEYEFSQEEFRNLQQEFWCKFYACCLQYQEALSHPLALHLNPHTNMVCLLKKGYLSFLIPSSLVDHLYLLPYENLLTEDETTISDDVDIARDVICLIKCLRLIEESVTVDMSVIMEMSCYNLQSPEKAAEQILEDMITIDVENVMEDICSKLQEIRNPIHAIGLLIREMDYETEVEMEKGFNPAQPLNIRMNLTQLYGSNTAGYIVCRGVHKIASTRFLICRDLLILQQLLMRLGDAVIWGTGQLFQAQQDLLHRTAPLLLSYYLIKWGSECLATDVPLDTLESNLQHLSVLELTDSGALMANRFVSSPQTIVELFFQEVARKHIISHLFSQPKAPLSQTGLNWPEMITAITSYLLQLLWPSNPGCLFLECLMGNCQYVQLQDYIQLLHPWCQVNVGSCRFMLGRCYLVTGEGQKALECFCQAASEVGKEEFLDRLIRSEDGEIVSTPRLQYYDKVLRLLDVIGLPELVIQLATSAITEAGDDWKSQATLRTCIFKHHLDLGHNSQAYEALTQIPDSSRQLDCLRQLVVVLCERSQLQDLVEFPYVNLHNEVVGIIESRARAVDLMTHNYYELLYAFHIYRHNYRKAGTVMFEYGMRLGREVRTLRGLEKQGNCYLAALNCLRLIRPEYAWIVQPVSGAVYDRPGASPKRNHDGECTAAPTNRQIEILELEDLEKECSLARIRLTLAQHDPSAVAVAGSSSAEEMVTLLVQAGLFDTAISLCQTFKLPLTPVFEGLAFKCIKLQFGGEAAQAEAWAWLAANQLSSVITTKESSATDEAWRLLSTYLERYKVQNNLYHHCVINKLLSHGVPLPNWLINSYKKVDAAELLRLYLNYDLLEEAVDLVSEYVDAVLGKGHQYFGIEFPLSATAPMVWLPYSSIDQLLQALGENSANSHNIALSQKILDKLEDYQQKVDKATRDLLYRRTL
notes: Prey clone; extent of the clone unknown; also called Homo Sapiens Nucleoporin 160 kD (NUP160); AD-IP
Turning to B8, the Hits is 3.
